Results on 3 substances are retold here after article PMC11050402.

Broadly, the Kd is the constant that tells how readily two partners part at equilibrium. Read a high Kd as lower affinity. A word on the koff: it is the first-order rate constant of dissociation. A lower koff goes with slow dissociation. Usually kon stands for the rate constant with which the complex forms.

Assay [1] concerns the target murine serum albumin (murine) (UniProt P07724). The assay can be described thus: SPR; Biacore T200, as described by Yin and co-authors (ref. 40); DOTA conjugates without radionuclide. A general note: SPR reads the build-up and loss of mass on a sensor chip optically.
UniProt P07724, sequence (P07724 25-608): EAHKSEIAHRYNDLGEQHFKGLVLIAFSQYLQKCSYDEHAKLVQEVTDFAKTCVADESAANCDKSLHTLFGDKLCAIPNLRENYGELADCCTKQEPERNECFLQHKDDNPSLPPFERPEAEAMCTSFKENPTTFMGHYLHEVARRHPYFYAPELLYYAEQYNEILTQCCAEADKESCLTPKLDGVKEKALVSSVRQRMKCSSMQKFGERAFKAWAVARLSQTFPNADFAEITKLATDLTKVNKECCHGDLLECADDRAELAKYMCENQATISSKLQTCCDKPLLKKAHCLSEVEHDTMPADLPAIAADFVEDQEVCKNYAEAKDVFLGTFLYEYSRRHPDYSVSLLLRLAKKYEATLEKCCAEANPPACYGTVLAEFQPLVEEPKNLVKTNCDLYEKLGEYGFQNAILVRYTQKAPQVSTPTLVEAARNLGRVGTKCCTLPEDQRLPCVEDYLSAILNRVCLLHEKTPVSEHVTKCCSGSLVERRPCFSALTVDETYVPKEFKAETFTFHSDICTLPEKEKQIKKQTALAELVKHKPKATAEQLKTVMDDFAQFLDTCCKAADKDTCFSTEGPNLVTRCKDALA
Assay [2] addresses human serum albumin (human) (UniProt P02768). Described as above.
UniProt P02768, sequence (P02768 25-609): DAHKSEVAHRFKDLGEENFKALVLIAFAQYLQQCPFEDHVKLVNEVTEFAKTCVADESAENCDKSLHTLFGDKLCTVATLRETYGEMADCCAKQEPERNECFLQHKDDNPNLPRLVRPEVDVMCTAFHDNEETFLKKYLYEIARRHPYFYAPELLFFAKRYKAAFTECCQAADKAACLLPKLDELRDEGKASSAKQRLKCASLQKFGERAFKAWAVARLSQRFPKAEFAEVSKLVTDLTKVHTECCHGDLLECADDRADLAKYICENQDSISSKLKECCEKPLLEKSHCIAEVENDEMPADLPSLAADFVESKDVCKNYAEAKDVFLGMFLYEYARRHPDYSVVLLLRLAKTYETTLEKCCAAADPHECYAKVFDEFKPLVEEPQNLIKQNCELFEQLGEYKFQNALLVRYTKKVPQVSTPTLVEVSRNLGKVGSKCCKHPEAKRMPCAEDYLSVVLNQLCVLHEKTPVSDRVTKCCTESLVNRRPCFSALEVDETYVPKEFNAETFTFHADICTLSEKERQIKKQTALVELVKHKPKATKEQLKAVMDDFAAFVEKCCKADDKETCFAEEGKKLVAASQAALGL
Assay [3] addresses human epidermal growth factor receptor type 2 (HER2) (human (endogenous in SKOV-3 and BT-474)) (UniProt P04626). The assay can be described thus: radioligand binding; LigandTracer Yellow on living SKOV-3 cells, 3 and 9 nM (1, 3 and 9 nM for [177Lu]Lu-G3), room temperature, with 100 nM human serum albumin; InteractionMap analysis, 1:2 model; apparent.

In assay [1], ABD-G3-DOTA (designed binder) yielded a Kd of 81.3 nM, a koff of 0.00191 s⁻¹ and a kon of 23500 M⁻¹ s⁻¹. In assay [2], this substance returned a Kd of 35.4 nM, a koff of 0.000302 s⁻¹ and a kon of 8530 M⁻¹ s⁻¹. In assay [3], the KD1 (first interaction, 1:2 model) stood at 1290 pM and the KD2 (second interaction, 1:2 model) stood at 67 nM.
In assay [1], G3-ABD-DOTA (designed binder) yielded a Kd of 8.46 nM, a koff of 0.00518 s⁻¹ and a kon of 61300 M⁻¹ s⁻¹. In assay [2], this substance yielded a Kd of 1.82 nM, a dissociation rate constant (koff) of 0.000238 s⁻¹ and a kon of 131000 M⁻¹ s⁻¹. Also, in assay [3], the KD1 (first interaction, 1:2 model) was 901 pM and the KD2 (second interaction, 1:2 model) came to 24 nM.
“non-ABD-fused DARPin G3 (control protein) (designed binder)”: in assay [3], the KD2 (second interaction, 1:2 model) worked out at 34 nM.
